In paper PMC3025461:

B1: S. cerevisiae Smc1 hinge protein (S480-E681), wild type (domain or fragment)
chain: SANNQEYDLNFKLRETLVKIDDLSANQRETMKERKLRENIAMLKRFFPGVKGLVHDLCHPKKEKYGLAVSTILGKNFDSVIVENLTVAQECIAFLKKQRAGTASFIPLDTIETELPTLSLPDSQDYILSINAIDYEPEYEKAMQYVCGDSIICNTLNIAKDLKWKKGIRGKLVTIEGALIHKAGLMTGGISGDANNRWDKEE

Tests used:
[1] = biological target: S. cerevisiae Smc1 hinge protein (S480-E681), wild type (S. cerevisiae) (UniProt P32908); test: ITC
[2] = biological target: S. cerevisiae Smc1DD hinge protein (S480-E681; K554D, K661D) (S. cerevisiae) (UniProt P32908); test: ITC
[3] = biological target: S. cerevisiae Smc3-FLAG hinge protein (S. cerevisiae); test: pull-down

Row | Molecule | Kd [1] | Kd [2] | reduction in dH against wild-type Smc1/Smc3 [2] | half time [3] | half-life of the hinge dimer [3]
1 | S. cerevisiae Smc3 hinge protein (T495-L695), wild type (domain or fragment) | 22 nM | – | – | – | –
2 | S. cerevisiae Smc3AAA hinge protein (T495-L695; R665A, K668A, R669A) (domain or fragment) | 24 nM | 29 nM | 4 kcal/mol | – | –
3 | B1 | – | – | – | 30 min | 15 to 30 min
